Literature values as cited in article PMC7395068, “The evolution of strategies to minimise the risk of human drug-induced liver injury (DILI) in drug discovery and development” (Archives of Toxicology, 2020).
Read-outs that look alike come from different tables or passages of the source.

Conditions: cited from earlier work
[1] = binary in vivo human DILI call, ref Chen 2016
[2] = human DILI, LTKB DILIrank category, ref Chen 2016
[3] = binary in vivo DILI call given beside the severity category, ref Chen 2016
[4] = human DILI concern category (LTKB DILIrank), ref Chen 2016

| Substance | DILI +VE (5-8), DILI -VE (-4) (in vivo) | DILI severity category (in vivo) | other results |
| --- | --- | --- | --- |
| erythropoietin | -VE | vNo-DILI-Concern |  |
| etanercept | +VE | vLess-DILI-Concern |  |
| exenatide |  |  | DILI +VE (5-8), DILI -VE (-4) [1]: -VE; DILI severity category [2]: vNo-DILI-Concern |
| ferumoxides | -VE | vNo-DILI-Concern |  |
| ferumoxytol | -VE | vNo-DILI-Concern |  |
| filgrastim | -VE | Ambiguous DILI-concern |  |
| galsulfase | -VE | vNo-DILI-Concern |  |
| gemtuzumab ozogamicin |  |  | DILI +VE (5-8), DILI -VE (-4) [1]: +VE; DILI severity category [2]: vMost-DILI-Concern |
| glatiramer acetate |  |  | DILI +VE (5-8), DILI -VE (-4) [1]: -VE; DILI severity category [2]: Ambiguous DILI-concern |
| golimumab | -VE | Ambiguous DILI-concern |  |
| heparin sodium | +VE | vLess-DILI-Concern |  |
| hyaluronidase | -VE | vNo-DILI-Concern |  |
| infliximab | +VE | vMost-DILI-Concern |  |
| interferon alfacon-1 | +VE | vMost-DILI-Concern |  |
| interferon beta-1b | +VE | vMost-DILI-Concern |  |
| lepirudin | -VE | Ambiguous DILI-concern |  |
| mecasermin | -VE | Ambiguous DILI-concern |  |
| muromonab-cd3 | -VE | Ambiguous DILI-concern |  |
| natalizumab | +VE | vMost-DILI-Concern |  |
| nesiritide | -VE | vNo-DILI-Concern |  |
| ofatumumab | -VE | vNo-DILI-Concern |  |
| omalizumab | -VE | vNo-DILI-Concern |  |
| palivizumab |  |  | DILI +VE (5-8), DILI -VE (-4) [3]: -VE; DILI severity category [4]: vNo-DILI-Concern |

| Substance | DILI +VE (5-8), DILI -VE (-4) (in vivo) | DILI severity category (in vivo) | other results |
| --- | --- | --- | --- |
| panitumumab | -VE | vNo-DILI-Concern |  |
| peginterferon alfa-2a | -VE | Ambiguous DILI-concern |  |
| pentosan polysulfate | -VE | Ambiguous DILI-concern |  |
| polyethylene glycol 3350 | -VE | vNo-DILI-Concern |  |
| polymyxin b sulfate |  |  | DILI +VE (5-8), DILI -VE (-4) [3]: -VE; DILI severity category [4]: vNo-DILI-Concern |
| pramlintide (KCNTATCATQRLANFLVHSSNNFGPILPPTNVGSNTY; chains of the INN, looked up) | -VE | vNo-DILI-Concern |  |
| protamine sulfate | -VE | vNo-DILI-Concern |  |
| rilonacept | -VE | vNo-DILI-Concern |  |
| romiplostim | -VE | vNo-DILI-Concern |  |
| sacrosidase | -VE | Ambiguous DILI-concern |  |
| sargramostim | -VE | vNo-DILI-Concern |  |
| secretin |  |  | DILI +VE (5-8), DILI -VE (-4) [3]: -VE; DILI severity category [4]: vNo-DILI-Concern |
| simethicone | -VE | vNo-DILI-Concern |  |
| somatropin recombinant | -VE | vNo-DILI-Concern |  |
| sucralfate |  |  | DILI +VE (5-8), DILI -VE (-4) [3]: -VE; DILI severity category [4]: vNo-DILI-Concern |
| teriparatide | -VE | vNo-DILI-Concern |  |
| tinzaparin |  |  | DILI +VE (5-8), DILI -VE (-4) [3]: -VE; DILI severity category [4]: Ambiguous DILI-concern |
| triptorelin pamoate | +VE | vLess-DILI-Concern |  |
| urokinase | -VE | vNo-DILI-Concern |  |
| ustekinumab | -VE | vNo-DILI-Concern |  |
| verteporfin | -VE | Ambiguous DILI-concern |  |
| vitamin e | -VE |  |  |
